Assay results from patent publication US20230235004A1 (published 2023).
Like-named read-outs stand apart in the source and are kept apart here.

T1: human MAdCAM protein (human, UniProt Q13477 19-317, limits assumed)
T1 construct: also called soluble monomeric human MAdCAM; recombinant human MAdCAM
T1 sequence (looked up): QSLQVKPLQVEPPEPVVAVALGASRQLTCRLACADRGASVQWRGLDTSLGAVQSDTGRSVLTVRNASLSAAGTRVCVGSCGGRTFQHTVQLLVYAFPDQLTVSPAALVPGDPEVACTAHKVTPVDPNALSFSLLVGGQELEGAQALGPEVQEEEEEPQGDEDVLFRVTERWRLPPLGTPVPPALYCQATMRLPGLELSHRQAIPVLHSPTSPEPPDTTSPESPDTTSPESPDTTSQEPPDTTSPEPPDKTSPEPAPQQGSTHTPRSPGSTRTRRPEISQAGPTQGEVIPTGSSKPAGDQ

T2: human MAdCAM expressed on cells (human, UniProt Q13477 19-382)
T2 construct: whole, on cells
T2 sequence (looked up): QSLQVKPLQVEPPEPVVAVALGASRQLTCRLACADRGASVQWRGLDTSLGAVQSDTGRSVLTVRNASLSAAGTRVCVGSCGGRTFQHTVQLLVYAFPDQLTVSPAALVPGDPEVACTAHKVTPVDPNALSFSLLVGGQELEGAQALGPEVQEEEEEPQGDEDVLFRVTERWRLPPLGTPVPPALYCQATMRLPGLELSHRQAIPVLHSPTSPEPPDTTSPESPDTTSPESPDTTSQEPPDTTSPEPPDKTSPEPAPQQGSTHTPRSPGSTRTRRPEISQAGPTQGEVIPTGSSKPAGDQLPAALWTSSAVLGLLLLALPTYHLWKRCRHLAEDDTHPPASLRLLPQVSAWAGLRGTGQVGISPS

T3: mouse MAdCAM expressed on cells (mouse, UniProt Q61826 22-405)
T3 construct: whole, on cells
T3 sequence (looked up): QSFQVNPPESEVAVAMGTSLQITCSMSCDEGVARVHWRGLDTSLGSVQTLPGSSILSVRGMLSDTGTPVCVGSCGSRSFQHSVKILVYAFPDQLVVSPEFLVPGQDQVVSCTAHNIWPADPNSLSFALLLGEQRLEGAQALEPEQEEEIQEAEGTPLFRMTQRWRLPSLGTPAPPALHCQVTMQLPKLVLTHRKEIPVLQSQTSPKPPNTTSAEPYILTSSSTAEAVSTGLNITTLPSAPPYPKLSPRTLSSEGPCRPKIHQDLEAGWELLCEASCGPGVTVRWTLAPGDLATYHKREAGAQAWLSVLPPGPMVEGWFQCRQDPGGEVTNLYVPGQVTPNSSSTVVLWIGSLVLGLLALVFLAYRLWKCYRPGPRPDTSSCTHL

B1: MAdCAM Antibody Table 2 clone 36 (antibody, V domains shown)
VH: EVQLLESGGGLVQPGGSLRLSCAASGFTFDDYALHWVRQAPGKGLEWVSAISGDGRSTTYADSVKGRFTISRDNSKNTLYLQMNSLRAEDTAVYYCARDGTVNGATGWFDPWGQGTLVTVSS
VL: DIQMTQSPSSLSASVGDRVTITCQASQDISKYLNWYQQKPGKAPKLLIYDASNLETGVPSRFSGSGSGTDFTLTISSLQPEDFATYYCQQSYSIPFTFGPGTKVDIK
notes: IgG format
B2: MAdCAM antibody Table 1 clone 15 (scFv)
scFv: QVQLVQSGAEVKKPGSSVKVSCKASGYTFTNYYMHWVRQAPGQGLEWMGGIIPIVDRVKYAQKFQGRVTITADESTSTAYMELSSLRSEDTAVYYCAKGRYTVNYYYGMDVWGQGTTVTVSSGGGGSGGGGSGGGGSGGGGSDIQMTQSPSSLSASVGDRVTITCQANQDISNYLNWYQQKPGKAPKLLIYRASKLEAGVPSRFSGSGSGTDFTLTISSLQPEDFATYYCQQSSEIPYSFGQGTKLEIK
B3: MAdCAM Antibody Table 2 clone 30 (antibody, V domains shown)
VH: EVQLLESGGGLVQPGGSLRLSCAASGFTFSSYAMHWVRQAPGKGLEWVSGISGSGGSAYYADSVKGRFTISRDNSKNTLYLQMNSLRAEDTAVYYCATSQAPVDYYYYGMDVWGQGTTVTVSS
VL: DIQMTQSPSSLSASVGDRVTITCRASQSISSWLAWYQQKPGKAPKLLIYAASNLQRGVPSRFSGSGSGTDFTLTISSLQPEDFATYYCQQSYSIPITFGQGTKVEIK
notes: IgG format
B4: MAdCAM Antibody Table 2 clone 60 (antibody, V domains shown)
VH: EVQLLESGGGLVQPGGSLRLSCAASGFTFSDHGMHWVRQAPGKGLEWVSVIYGGESTYYADSVKGRFTISRDNSKNTLYLQMNSLRAEDTAVYYCARDPAVAGGGIFDYWGQGTLVTVSS
VL: DIQMTQSPSSLSASVGDRVTITCRASQGISNYLAWYQQKPGKAPKLLIYDASNLETGVPSRFSGSGSGTDFTLTISSLQPEDFATYYCQQSYSTCYTFGQGTKLEIK
notes: IgG format
B5: MAdCAM Antibody Table 2 clone 58 (antibody, V domains shown)
VH: EVQLLESGGGLVQPGGSLRLSCAASGFSVSSNYMSWVRQAPGKGLEWVAGISYDGSSKPYADSVKGRFTISRDNSKNTLYLQMNSLRAEDTAVYYCARSRGIAARPLQHWGQGTLVTVSS
VL: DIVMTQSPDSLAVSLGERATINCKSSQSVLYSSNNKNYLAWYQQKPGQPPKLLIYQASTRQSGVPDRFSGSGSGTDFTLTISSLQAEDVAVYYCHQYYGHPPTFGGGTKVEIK
notes: IgG format
B6: MAdCAM antibody Table 1 clone 14 (scFv)
scFv: QVQLVQSGAEVKKPGSSVKVSCKASGYTFTDYHIHWVRQAPGQGLEWMGGIVPRSGSTTYAQKFQGRVTITADESTSTAYMELSSLRSEDTAVYYCAKDESSGWYYFDYWGQGTLVTVSSGGGGSGGGGSGGGGSGGGGSDIVMTQSPLSLPVTPGEPASISCRSSQSLLHSNGYNYLDWYLQKPGQSPQLLIYSAYNRASGVPDRFSGSGSGTDFTLKISRVEAEDVGVYYCMQALQTPLTFGQGTKVEIK
B7: MAdCAM Antibody Table 2 clone 55 (antibody, V domains shown)
VH: EVQLLESGGGLVQPGGSLRLSCAASGFTFDDFAMHWVRQAPGKGLEWVSGISGNGDSRYYADSVKGRFTISRDNSKNTLYLQMNSLRAEDTAVYYCARDASYGGNYGMDVWGQGTTVTVSS
VL: DIQMTQSPSSLSASVGDRVTITCQASQDIRNYLNWYQQKPGKAPKLLIYKASTLESGVPSRFSGSGSGTDFTLTISSLQPEDFATYYCQQANSFPLTFGPGTKVDIK
notes: IgG format
B8: MAdCAM Antibody Table 2 clone 63 (antibody, V domains shown)
VH: EVQLLESGGGLVQPGGSLRLSCAASGFTFNNYGMNWVRQAPGKGLEWVSRINSDGSSTSYADSVKGRFTISRDNSKNTLYLQMNSLRAEDTAVYYCARGAYYYYYMDVWGQGTLVTVSS
VL: EIVMTQSPATLSVSPGERATLSCRASQSVSGSYLAWYQQKPGQAPRLLIYATSSRASGIPARFSGSGSGTEFTLTISSLQSEDFAVYYCQQYYSGLTFGQGTKVEIK
notes: IgG format

Tests used:
human MAdCAM protein = biological target: T1, human MAdCAM protein; experiment: Octet
[1] = biological target: T2, human MAdCAM expressed on cells; experiment: cell binding
[2] = biological target: T3, mouse MAdCAM expressed on cells; experiment: cell binding
[3] = biological target: T2, human MAdCAM expressed on cells; experiment: cell binding; remark: listed apart in the source
[4] = biological target: T3, mouse MAdCAM expressed on cells; experiment: cell binding; remark: listed apart in the source

Binder	binding result (human MAdCAM protein)	binding result [1]	binding result [2]	binding result [3]	binding result [4]
B1	binds	binds	binds		
B2				binds	no binding
B3	binds	binds	binds		
B4	binds	binds	binds		
B5	binds	binds	no binding		
B6				binds	no binding
B7	binds	binds	no binding		
B8	binds	binds	no binding		
